The supplement of paper PMC10126150
± gives the standard deviation of the averaged measurements.

test system: ATP; assay: switch fluorescence ratio, 500 uM ATP over buffer (Cy3 cluster intensity, sum of 5 cycles each) (fold (ratio)); higher = stronger signal-on switching upon ATP binding; sequences stand for … in TCGTCGGCAGCGTCAGATGTGTATAAGAGACAGTTTTTTTTTTTTTTTTTTTTTTTTT…TC; details: aptamer strand: ATP DNA aptamer (quencher-CACCTGGGGGAGTATTGCGGAGGAAGG + anchor), 100 nM annealed; ATP concentration: 500 uM
Method in brief: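 For every switch-domain sequence, the fluorescence ratio is the mean of per-cluster values, each being summed target-cycle Cy3 intensity over summed buffer-cycle Cy3 intensity. Clusters outside 100-1000 RFU were excluded. On a modified Illumina MiSeq flow-cell, the Cy3-labelled switching-strand clusters were annealed to 100 nM quencher-labelled ATP aptamer, imaged in selection buffer and then after 15 min with 500 uM ATP at 22 °C. Five such cycles were run, with NaOH stripping and re-annealing between them.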
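Further: ATP exposure 15 min at 22 °C before imaging.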

Sequence	switch fluorescence ratio
TGAGGTCACG	0.982 ± 0.036
TGAGGTCGCG	0.9759 ± 0.0035
TGAGGTGTAT	0.98719 ± 0.00023
TGAGGTTGTC	0.981 ± 0.09
TGAGGTTTGA	0.986 ± 0.02
TGAGTACAGC	1.03 ± 0.092
TGAGTACGGG	0.9844 ± 0.0025
TGAGTATAGT	1.01 ± 0.035
TGAGTCCTCG	0.995 ± 0.064
TGAGTCTGTT	1.01 ± 0.028
TGAGTGACG	1.0136 ± 0.00054
TGAGTGATTT	1.02 ± 0.031
TGAGTGGGGC	1.03 ± 0.025
TGAGTTATTT	1.01 ± 0.012
TGAGTTCAAC	1.04 ± 0.086
TGAGTTCGGC	1.03 ± 0.015
TGAGTTGGGT	0.986 ± 0.019
TGAGTTTGTT	1.021 ± 0.0092
TGAGTTTTGG	1.02 ± 0.015
TGAGTTTTTG	0.998 ± 0.022
TGATAAAGAT	1.02 ± 0.034
TGATAAATAC	1.33 ± 0.069
TGATAATTTA	1.06 ± 0.016
TGATACCATG	0.997 ± 0.018
TGATAGCCAG	0.9605 ± 0.0072

Sequence	switch fluorescence ratio
TGATAGGGCG	0.963 ± 0.08
TGATATAAGC	1.03 ± 0.015
TGATATCAAG	0.979 ± 0.013
TGATATGGGA	1.01 ± 0.03
TGATATTGTG	0.994 ± 0.024
TGATATTTGT	1.01 ± 0.027
TGATCAGATC	1 ± 0.026
TGATCATATT	1.024 ± 0.0079
TGATCCCGGG	0.93018 ± 0.00028
TGATCGCTTT	1.026 ± 0.01
TGATCGGGCG	1.04 ± 0.02
TGATCTTGGA	1.06 ± 0.055
TGATCTTGTT	0.9619 ± 0.0037
TGATGAAAGG	0.987 ± 0.031
TGATGAAATT	1.02 ± 0.036
TGATGAGGAG	0.996 ± 0.014
TGATGAGGAT	1.007 ± 0.0083
TGATGAGGGT	1.02 ± 0.02
TGATGATATG	0.9929 ± 0.0094
TGATGCCGCT	1.07 ± 0.083
TGATGCGGGT	0.98723 ± 6.3e-05
TGATGCGTGT	0.999 ± 0.027
TGATGCTCGG	0.996 ± 0.069
TGATGGATGA	1.01 ± 0.02
TGATGGGACT	1.01 ± 0.029

Sequence	switch fluorescence ratio
TGATGGGAGT	0.983 ± 0.014
TGATGGGGGT	1.04 ± 0.042
TGATGGGTTT	0.971 ± 0.043
TGATGGTCGA	1.02 ± 0.032
TGATGTAACG	1.012 ± 0.0082
TGATGTACGT	1 ± 0.011
TGATGTGGGG	0.97 ± 0.029
TGATGTTGAC	1 ± 0.013
TGATGTTTGA	0.9947 ± 0.0094
TGATTAGAAG	0.985 ± 0.034
TGATTCAAAG	1.01 ± 0.035
TGATTCAAAT	1.02 ± 0.0087
TGATTGAGGG	0.9572 ± 0.0056
TGATTGGAGG	0.994 ± 0.038
TGATTGGGTC	1.02 ± 0.036
TGATTGGTGT	1.02 ± 0.011
TGATTGTGGG	1.03 ± 0.033
TGATTTATGA	0.9924 ± 0.0067
TGATTTGAAG	0.9464 ± 0.007
TGATTTTGAG	1.01 ± 0.018
TGATTTTGGG	0.997 ± 0.035
TGATTTTGTC	0.9932 ± 0.0028
TGATTTTTAC	1.08 ± 0.092
TGATTTTTTG	0.969 ± 0.03
TGCAAAAGGC	0.972 ± 0.013

Sequence	switch fluorescence ratio
TGCAAAATTT	0.995 ± 0.018
TGCAAACCTT	2.39 ± 0.047
TGCAACCTCA	1.09 ± 0.043
TGCAAGCGGG	0.985 ± 0.027
TGCAAGGGGG	1.06 ± 0.077
TGCAAGGGGT	1.14 ± 0.16
TGCAAGGTCG	1.03 ± 0.031
TGCAAGTACA	1.41 ± 0.063
TGCAAGTGGT	1.54 ± 0.75
TGCAAGTTTG	1 ± 0.017
TGCAATATTT	1.31 ± 0.02
TGCAATGCAC	1.558 ± 0.0038
TGCAATTAAC	3.51 ± 0.17
TGCAATTGTA	1.0195 ± 0.00099
TGCACCAGG	3.29 ± 0.44
TGCAGCTAGC	1.05 ± 0.021
TGCAGGGGTA	1.12 ± 0.2
TGCAGGGTTG	0.99591 ± 0.00085
TGCATACAGT	1.03 ± 0.046
TGCATATGGG	0.978 ± 0.0058
TGCATGGCAA	1.03 ± 0.013
TGCATGTTTG	0.975 ± 0.056
TGCATTATAC	3.59 ± 0.19
TGCATTCAGT	0.99 ± 0.048
TGCATTCTGA	1.02 ± 0.025

Sequence	switch fluorescence ratio
TGCATTGGTG	1.018 ± 0.0019
TGCATTGTTT	0.999 ± 0.015
TGCATTTTGT	0.989 ± 0.018
TGCCACAGCA	1.02 ± 0.025
TGCCATCCTA	0.9913 ± 0.005
TGCCCATGAT	0.963 ± 0.018
TGCCCCGCCT	0.996 ± 0.044
TGCCCCTTTT	0.98 ± 0.013
TGCCCGGGGT	1.05 ± 0.036
TGCCGAAAGC	1.018 ± 0.0087
TGCCGAAAGT	0.962 ± 0.033
TGCCGAGGCC	0.977 ± 0.0077
TGCCGCCTTG	0.979 ± 0.024
TGCCGCTTCT	1.02 ± 0.058
TGCCGGACGA	1.065 ± 0.0037
TGCCGGCGGG	0.9629 ± 0.0043
TGCCGGCTGG	1.02 ± 0.053
TGCCGGGTCT	0.988 ± 0.04
TGCCGTCGGC	0.949 ± 0.06
TGCCTGCATT	1.02 ± 0.011
TGCCTTGCCA	1 ± 0.012
TGCCTTTCGG	0.9909 ± 0.0062
TGCGATGACT	1.45 ± 0.65
TGCGATTCTG	0.978 ± 0.032
TGCGCAGCGG	1.005 ± 0.0094

Sequence	switch fluorescence ratio
TGCGCTTCTA	0.98114 ± 0.00055
TGCGGAAGGC	1.11 ± 0.013
TGCGGAGGTT	1.019 ± 0.0037
TGCGGCGAGG	1.016 ± 2e-05
TGCGGGGCAG	1.04 ± 0.072
TGCGGGGGCG	0.992 ± 0.038
TGCGGGGGTG	1.05 ± 0.018
TGCGGGGTGG	1.12 ± 0.072
TGCGGGTGGT	1.035 ± 0.0014
TGCGGTAGAA	1.01 ± 0.024
TGCGTATGAA	0.9796 ± 0.0097
TGCGTCCAAG	1.02 ± 0.029
TGCGTCGGTG	1.03 ± 0.049
TGCGTCTGAT	1.001 ± 0.0082
TGCGTGAAAT	0.9765 ± 0.0044
TGCGTGGGGA	1.04 ± 0.0057
TGCTAACGTG	0.977 ± 0.0057
TGCTAGGAG	0.995 ± 0.043
TGCTAGTACC	1.054 ± 0.0036
TGCTATCATT	1.08 ± 0.12
TGCTCATAGC	1.01 ± 0.021
TGCTCCAGTC	1.094 ± 0.0067
TGCTCCGGAG	1.018 ± 0.006
TGCTCCTGTA	1 ± 0.024
TGCTCGGCGT	0.99846 ± 0.00041

Sequence	switch fluorescence ratio
TGCTCTAGGA	1.001 ± 0.0042
TGCTGAAGAT	1.003 ± 0.0067
TGCTGAGTAG	0.9785 ± 0.0036
TGCTGCAGTT	0.982 ± 0.055
TGCTGGAGGA	1.038 ± 0.006
TGCTGGATTT	0.991 ± 0.016
TGCTGGCATA	1.18 ± 0.29
TGCTGGCCTG	1.01 ± 0.019
TGCTGGGGAT	1.009 ± 0.0015
TGCTGGTCTC	1 ± 0.015
TGCTGGTCTG	1.02 ± 0.047
TGCTGTATTC	0.967 ± 0.041
TGCTGTTCTC	0.995 ± 0.018
TGCTTAGTC	1.01 ± 0.022
TGCTTCATAA	1.01 ± 0.048
TGCTTGAGTC	1.009 ± 0.0027
TGCTTGGGGC	0.99 ± 0.059
TGCTTGTCTC	1 ± 0.013
TGCTTTAGCG	1.0155 ± 0.00011
TGCTTTCATG	1.01 ± 0.027
TGCTTTCTTC	1.15 ± 0.31
TGCTTTGTGT	0.978 ± 0.025
TGCTTTTAGG	0.996 ± 0.017
TGCTTTTCTT	0.996 ± 0.018
TGCTTTTTA	0.971 ± 0.051

Sequence	switch fluorescence ratio
TGGAAAAGCT	1.06 ± 0.034
TGGAAAAGGT	1.0134 ± 0.00089
TGGAAAATTC	1.019 ± 0.0078
TGGAAAGTAC	1.28 ± 0.095
TGGAAGATGG	1.01 ± 0.03
TGGAAGGGCT	1.052 ± 0.0058
TGGAAGGTTA	1.01 ± 0.025
TGGAAGTCGG	0.984 ± 0.022
TGGACACTGC	1.02 ± 0.011
TGGACAGACA	1.111 ± 0.0046
TGGACGAATA	1.39 ± 0.29
TGGACGAGAG	1.01 ± 0.019
TGGACGGAAG	0.984 ± 0.018
TGGAGAAGTA	1.09 ± 0.2
TGGAGCCTTT	1.1 ± 0.18
TGGAGCGGGA	1 ± 0.022
TGGAGGTCGC	1.01 ± 0.049
TGGAGGTCTA	1 ± 0.018
TGGAGGTTAG	1.02 ± 0.034
TGGAGGTTAT	0.9935 ± 0.0081
TGGAGTAAAA	1.03 ± 0.053
TGGAGTATTT	0.9525 ± 0.005
TGGAGTGGGT	1.01 ± 0.011
TGGAGTTAGG	0.995 ± 0.013
TGGAGTTGGT	0.987 ± 0.047
